{"source": "patent US20260049148", "test_system": "internally quenched peptide probe (MCA)-Gly-Ser-Ala-Ile-Ala-Leu-Tyr-Gly-Gly-Ser-Lys (DNP)-D-Arg with CM AIALY (SEQ ID NO: 5)", "data": [{"substance": "human recombinant MMP9 (R&D Systems, catalog No: 911-MP)", "values": [{"measurement": "Probe Cleavage (kcat/KM)", "result": 41000, "unit": "M⁻¹ s⁻¹"}, {"measurement": "Probe Cleavage (pM/s)", "result": 87.7, "unit": "pM/s"}]}]}
